Source: paper PMC7556403

Tests used:
MBP–APO1 mSOL (human) = MBP–APO1 mSOL (human) (UniProt P41238); assay: SEC; MBP–APO1 fusion proteins; SEC in 20 mM HEPES pH 7.5, 500 mM NaCl, 0.5 mM TCEP
[1] = target: MBP–APO1 mXT-173L (human) (UniProt P41238); assay: SEC-MALS; MBP–APO1 fusions with Leu, Gln or Ala at position 173; SEC and MALS
[2] = target: MBP–APO1 mXT-173Q (human) (UniProt P41238); assay: as above
MBP–APO1 mXT (human) [3] = target: MBP–APO1 mXT (human) (UniProt P41238); assay: as above
MBP–APO1 mXT (human) [4] = target: MBP–APO1 mXT (human) (UniProt P41238); assay: SEC; MBP–APO1 fusion proteins; SEC in 20 mM HEPES pH 7.5, 500 mM NaCl, 0.5 mM TCEP

Substance: MBP–APO1 mSOL (from UniProt P41238 1-236) (enzyme)
- stoichiometry N (MBP–APO1 mSOL (human)): 2

Substance: MBP–APO1 mXT-173L (from UniProt P41238 15-236) (enzyme)
- stoichiometry N [1]: 2

Substance: MBP–APO1 mXT-173Q (from UniProt P41238 15-236) (enzyme)
- percent in the dimer peak [2]: 1 to 2%

Substance: MBP–APO1 mXT (from UniProt P41238 15-236) (enzyme)
- stoichiometry N (MBP–APO1 mXT (human) [3]): 2
- stoichiometry N (MBP–APO1 mXT (human) [4]): 2
